Laboratory results taken from doi:10.1101/2024.11.20.624486.

Biological target: GST-HktR (Pseudomonas syringae pv. actinidiae M228)
Assay: MST

RpoD-His6 (natural protein)
Kd: 1790 nM
